First the molecules themselves.
B1: glmS ribozyme (parent)
chain: AUAAAAGCGCCAGAACUACAGAAAUGUAGUUGACGAGGAGGAGGUUUAUCGAAUUUUCGGCGGAUGCCUCCAAA

Common to all, as to conditions: with glucosamine-6-phosphate
The variants in data set [1] derive from B1. Briefly: kcat; higher = faster cleavage; RNA array. Put shortly:
(§1)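 Glucosamine-6-phosphate (40 μM to 10 mM) in HEPES/KCl/Mg(OAc)2 buffer was flowed over sequenced MiSeq chips, and tiles were imaged over ~14 h. Barcoded ribozyme variants there had been transcribed in situ by E. coli RNA polymerase and were tracked through a hybridised Cy3 probe at 37 °C. One- or two-exponential decay fits to per-tile medians, normalised to baseline and to non-cleaving reference variants, gave kobs. kcat and KM came from weighted Michaelis–Menten fits across concentrations.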

Variants of B1 are the subject of data set [2]. Nature of the data set: KM; higher = weaker cofactor use; RNA array. Put shortly:
as §1

Variants of B1 are the subject of data set [3]. Briefly: self-cleavage kobs at 40 uM GlcN6P; higher = faster cleavage; RNA array. In outline: as §1
Data set [4] covers variants of B1. Nature of the data set: self-cleavage kobs at 160 uM GlcN6P; higher = faster cleavage; RNA array. Put shortly:
as §1

The variants in data set [5] derive from B1. Nature of the data set: self-cleavage kobs at 640 uM GlcN6P; higher = faster cleavage; RNA array. Put shortly: as §1
In data set [6] the parent is B1. Briefly: self-cleavage kobs at 2500 uM GlcN6P; higher = faster cleavage; RNA array. Put shortly: as §1
In data set [7] the parent is B1. Briefly: self-cleavage kobs at 10000 uM GlcN6P; higher = faster cleavage; RNA array. In outline: as §1

This is an account of results in the supplement of paper PMC7125110.

± gives the standard error. For some of these results: This sample holds only a part of the variants without activity. Where only a bound is given, the exact number is not on record here.

As a reminder, the kcat is the number of substrate molecules converted per active site and unit of time at saturation. The term KM denotes the substrate concentration at which the rate is half of its maximum.

In the case of U47G U55A, the kcat in data set [1] turned out to be 0.00811 ± 0.0025 s⁻¹. Besides, in data set [2], the KM was 1410 ± 600 µM. In addition, the “self-cleavage kobs at 40 uM GlcN6P” value in data set [3] worked out at 0.000281 ± 3.1e-05 s⁻¹. Further, in data set [4], the “self-cleavage kobs at 160 uM GlcN6P” value turned out to be 0.000855 ± 0.00014 s⁻¹. Moreover, in data set [5], the “self-cleavage kobs at 640 uM GlcN6P” value is 0.00187 ± 0.00028 s⁻¹. Also, the “self-cleavage kobs at 2500 uM GlcN6P” value in data set [6] worked out at 0.00514 ± 0.00081 s⁻¹. Also, the “self-cleavage kobs at 10000 uM GlcN6P” value in data set [7] is 0.00878 ± 0.0013 s⁻¹.

With C50A G51A, in data set [1], the turnover number (kcat) was below 1e-05 s⁻¹. Further, the “self-cleavage kobs at 10000 uM GlcN6P” value in data set [7] is below 1e-05 s⁻¹.

For C61U G63C, the turnover number (kcat) in data set [1] is below 1e-05 s⁻¹. In data set [6], the “self-cleavage kobs at 2500 uM GlcN6P” value was below 1e-05 s⁻¹.

In the case of C16U U65G C67G, the kcat in data set [1] was 0.0015 ± 8.8e-05 s⁻¹. Further, in data set [2], the KM is 1420 ± 160 µM. In addition, the “self-cleavage kobs at 40 uM GlcN6P” value in data set [3] is 3.76e-05 ± 1.7e-05 s⁻¹. In addition, the “self-cleavage kobs at 640 uM GlcN6P” value in data set [5] was found to be 0.000493 ± 0.00013 s⁻¹. The “self-cleavage kobs at 2500 uM GlcN6P” value in data set [6] was 0.000981 ± 0.00024 s⁻¹. The “self-cleavage kobs at 10000 uM GlcN6P” value in data set [7] stood at 0.00128 ± 0.00032 s⁻¹.

Regarding A14G A39U, in data set [1], the kcat turned out to be 0.0511 ± 0.013 s⁻¹. Also, the KM in data set [2] came out at 1450 ± 480 µM. In addition, the “self-cleavage kobs at 40 uM GlcN6P” value in data set [3] was found to be 0.00167 ± 0.00051 s⁻¹. Also, the “self-cleavage kobs at 160 uM GlcN6P” value in data set [4] amounted to 0.00416 ± 0.0013 s⁻¹. The “self-cleavage kobs at 640 uM GlcN6P” value in data set [5] was 0.0183 ± 0.0062 s⁻¹. The “self-cleavage kobs at 2500 uM GlcN6P” value in data set [6] was 0.0365 ± 0.014 s⁻¹. Moreover, the “self-cleavage kobs at 10000 uM GlcN6P” value in data set [7] amounted to 0.0395 ± 0.019 s⁻¹.

As to U49G C70G, the catalytic constant (kcat) in data set [1] came out at 4.12e-05 ± 2.8e-06 s⁻¹. Further, the “self-cleavage kobs at 160 uM GlcN6P” value in data set [4] was 3.09e-05 ± 1.3e-05 s⁻¹. Besides, in data set [5], the “self-cleavage kobs at 640 uM GlcN6P” value stood at 4.22e-05 ± 9e-06 s⁻¹. Also, in data set [6], the “self-cleavage kobs at 2500 uM GlcN6P” value was 3.6e-05 ± 8e-06 s⁻¹. In addition, in data set [7], the “self-cleavage kobs at 10000 uM GlcN6P” value is 4.11e-05 ± 6e-06 s⁻¹.

Turning to C10G A52U, in data set [1], the kcat is below 1e-05 s⁻¹. In addition, in data set [3], the “self-cleavage kobs at 40 uM GlcN6P” value is below 1e-05 s⁻¹. Besides, in data set [4], the “self-cleavage kobs at 160 uM GlcN6P” value is below 1e-05 s⁻¹. Also, the “self-cleavage kobs at 640 uM GlcN6P” value in data set [5] is below 1e-05 s⁻¹.

Regarding U30C G40U, the turnover number (kcat) in data set [1] is 4.56e-05 ± 6.3e-06 s⁻¹. Further, the “self-cleavage kobs at 2500 uM GlcN6P” value in data set [6] is 5.33e-05 ± 1.1e-05 s⁻¹. The “self-cleavage kobs at 10000 uM GlcN6P” value in data set [7] is 4.17e-05 ± 6.9e-06 s⁻¹.

As to U57C C68G, the turnover number (kcat) in data set [1] turned out to be 1.42e-05 ± 2.7e-06 s⁻¹.

Consider A53U U57A, for which the kcat in data set [1] is 0.000262 ± 3e-05 s⁻¹. Further, the KM in data set [2] came out at 2870 ± 600 µM. In addition, the “self-cleavage kobs at 640 uM GlcN6P” value in data set [5] came out at 5.19e-05 ± 8e-06 s⁻¹. The “self-cleavage kobs at 2500 uM GlcN6P” value in data set [6] amounted to 0.000113 ± 1.4e-05 s⁻¹. In data set [7], the “self-cleavage kobs at 10000 uM GlcN6P” value came to 0.000215 ± 3e-05 s⁻¹.

Consider G60C G66A, for which, in data set [1], the catalytic constant (kcat) was below 1e-05 s⁻¹. Moreover, the “self-cleavage kobs at 640 uM GlcN6P” value in data set [5] is below 1e-05 s⁻¹.

Turning to A14U A39U A52G, the catalytic constant (kcat) in data set [1] came out at 0.00264 ± 0.00045 s⁻¹. The “self-cleavage kobs at 2500 uM GlcN6P” value in data set [6] came to 5.72e-05 ± 1.2e-05 s⁻¹. In addition, the “self-cleavage kobs at 10000 uM GlcN6P” value in data set [7] stood at 0.000214 ± 3.7e-05 s⁻¹.

With A12U G41U, the kcat in data set [1] came out at 0.0013 ± 0.00058 s⁻¹. Moreover, the “self-cleavage kobs at 40 uM GlcN6P” value in data set [3] was determined as 0.000239 ± 2.1e-05 s⁻¹. Besides, in data set [4], the “self-cleavage kobs at 160 uM GlcN6P” value amounted to 0.00041 ± 5.1e-05 s⁻¹. Further, the “self-cleavage kobs at 640 uM GlcN6P” value in data set [5] came to 0.000814 ± 8.1e-05 s⁻¹. In addition, in data set [6], the “self-cleavage kobs at 2500 uM GlcN6P” value is 0.00212 ± 0.00022 s⁻¹.

As for A33U U56G, the kcat in data set [1] is 3.36e-05 ± 2.8e-06 s⁻¹. For the same variant, the KM in data set [2] turned out to be 3370 ± 930 µM.

As for A15G G51A, the kcat in data set [1] was below 1e-05 s⁻¹. Also, in data set [4], the “self-cleavage kobs at 160 uM GlcN6P” value was below 1e-05 s⁻¹. Also, the “self-cleavage kobs at 640 uM GlcN6P” value in data set [5] was below 1e-05 s⁻¹.

As for G38A C50G, the turnover number (kcat) in data set [1] stood at 3.77e-05 ± 1.1e-05 s⁻¹. For the same variant, in data set [4], the “self-cleavage kobs at 160 uM GlcN6P” value is 6.25e-05 ± 1.5e-05 s⁻¹. Besides, in data set [5], the “self-cleavage kobs at 640 uM GlcN6P” value was 3.79e-05 ± 1.3e-05 s⁻¹. In data set [6], the “self-cleavage kobs at 2500 uM GlcN6P” value amounted to 3.46e-05 ± 1.4e-05 s⁻¹.

For C10U A39G, the turnover number (kcat) in data set [1] was 3.18e-05 ± 4e-06 s⁻¹. Further, the “self-cleavage kobs at 40 uM GlcN6P” value in data set [3] is below 1e-05 s⁻¹. The “self-cleavage kobs at 2500 uM GlcN6P” value in data set [6] was determined as 4.09e-05 ± 2e-05 s⁻¹. Further, the “self-cleavage kobs at 10000 uM GlcN6P” value in data set [7] is 2.93e-05 ± 8.6e-06 s⁻¹.

Turning to A14C U45A, the kcat in data set [1] was determined as 0.00955 ± 0.0035 s⁻¹. Moreover, the “self-cleavage kobs at 40 uM GlcN6P” value in data set [3] came out at 0.000245 ± 3.9e-05 s⁻¹. The “self-cleavage kobs at 160 uM GlcN6P” value in data set [4] was found to be 0.000909 ± 0.00039 s⁻¹. The “self-cleavage kobs at 640 uM GlcN6P” value in data set [5] is 0.00207 ± 0.00049 s⁻¹. The “self-cleavage kobs at 2500 uM GlcN6P” value in data set [6] was found to be 0.00469 ± 0.00097 s⁻¹. Moreover, the “self-cleavage kobs at 10000 uM GlcN6P” value in data set [7] was 0.0131 ± 0.0028 s⁻¹.

Take A36U A64G: in data set [1], the kcat was determined as 1.98e-05 ± 2e-06 s⁻¹. The “self-cleavage kobs at 10000 uM GlcN6P” value in data set [7] worked out at 1.85e-05 ± 5.8e-06 s⁻¹.
